Data reported in the nanobody polyreactivity screen of Harvey et al. (2022).

Experiment: yeast display, Sf9 membrane polyspecificity reagent, FACS + sequencing; frameworks hold sequencing errors
How it was run: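 Genes from sorted yeast were amplified by colony PCR, read by MiSeq 2 × 250 sequencing and filtered on CDR length. These cells carried a synthetic nanobody library in Saccharomyces cerevisiae BJ5465 and were sorted by FACS into low and high (top ~1%) gates on anti-HA and streptavidin fluorescence. Polyreactivity is labelled according to the gate of origin.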

## QVQLVESGGGLVQAGGSLRLSCAASGGIFSYAMGWSRQAPGKERELVADINSDGSTTYADSVKGRFTISRDNAKNTVYLQMNSLKPEDTAVYYCAVDVSVNWPLLERYEYWGQGTQVTVSS
  polyreactivity (PSR sort gate): low polyreactivity

## QVQLVESGGGLVQAGGSLRLSCAASGGIFSYAMGWYRQAPGKERELVAAISRSAGITYYADSVKGRFTISRDNAKNTVYLQMNSLKPEDTAVYYCAASYYSYLYYSWGQGTQVTVSS
  polyreactivity (PSR sort gate): high polyreactivity

## QVQLVESGGGLVQAGGSLRLSCAASGGIFSYNDMGWYRQAPGKERELVAAISSGGGGITYYADSVKGRFTISRDNAKNTVYLQMNSLKPEDTAVYYCNVVPDFRAAYSSQYYYWGQGTQVTVSS
  polyreactivity (PSR sort gate): low polyreactivity

## QVQLVESGGGLVQAGGSLRLSCAASGGIFSYYAMGWYRQAHGKERELVAAISGSGGRTYYADSVKGRFTISRDNAKNTVYLQMNSLKPEDTAVYYCAADSLSYSWEYYYWGQGTQVTVSS
  polyreactivity (PSR sort gate): high polyreactivity

## QVQLVESGGGLVQAGGSLRLSCAASGGIFSYYTMGWYRQAPGKERELVARITTGGSTNYADSVKGRFTISRDNAKNTVYLQMNSLKPEDTAVYYCAATGPKYWLTWSSYTRYDYWGQGTQVTVSS
  polyreactivity (PSR sort gate): high polyreactivity

## QVQLVESGGGLVQAGGSLRLSCAASGGIFTINAMGWYRQAPGKERELVAAITYGGTSTNYADSVKGRFTISRDNAKNTVYLQMNSLKPEDTAVYYCAKLPNLPGDYWGQGTQVTVSS
  polyreactivity (PSR sort gate): low polyreactivity

## QVQLVESGGGLVQAGGSLRLSCAASGGIFTIYAMGWYRQAPGKETELVASITGGSGSTYYADSVKGRFTISRDNAKNTVYLQMNSLKPEDTAVYYCARETYRRYGAYDYWGQGTQVTVSS
  polyreactivity (PSR sort gate): low polyreactivity

## QVQLVESGGGLVQAGGSLRLSCAASGGIFTLYVMGWYRQEPGKERELVAAISRTGGSTYYADSVKGRLTISRDNAKNTVYLQMNSLKPEDTAVYYCDAERGVDDSARYGDYDYWGQGTQVTVSS
  polyreactivity (PSR sort gate): low polyreactivity

## QVQLVESGGGLVQAGGSLRLSCAASGGIFTPYAMGWYIQAPGKEREFVAGIRWSGVSTSYADSVKGRFTISRDNAKNTVYFQMNSLKPEDTAVSYCAATTHRWWVTFDYWGQGTQVTVSS
  polyreactivity (PSR sort gate): low polyreactivity

## QVQLVESGGGLVQAGGSLRLSCAASGGIFVFYAMGWYRQAPGKERELVAAITYRGGSTSYADSVKRRFTISRDNAKNTVYLQMNSLKPEDTAVYYCNARRRTWYGFYYWGQGTQVTVSS
  polyreactivity (PSR sort gate): high polyreactivity

## QVQLVESGGGLVQAGGSLRLSCAASGGIFVRYAMGWYRPAPGKERELVAAISSSGDRTYYADSVKGRFTISRDTAKNTVYLQMNSLKPEDTAVYYCNADRGHDKVDYWGQGTQVTVSS
  polyreactivity (PSR sort gate): low polyreactivity

## QVQLVESGGGLVQAGGSLRLSCAASGGIFVSYAMGWYRQAPGKERELVAAITSGGGTSYADSVKGRFTISRDNAKNTVYLQLTSLKPEDTAVYYCAARFLWSVFGRKGGYWGQGTQVTVSS
  polyreactivity (PSR sort gate): low polyreactivity

## QVQLVESGGGLVQAGGSLRLSCAASGGIFWYYAMGWYRQAPGKERELVAGISRGGGTYYADSVKGRFTISRDNAKNTVYLQMNSLKPEDTAVYYCAVDGRYAYAYEYWGQGTQVTVSS
  polyreactivity (PSR sort gate): low polyreactivity

## QVQLVESGGGLVQAGGSLRLSCAASGGIFWYYTMGWYRQAPGKERELVATISSGGRTYYADSVKGRFTISRDNAKNTVYLQMNSLKPEDTAVYYCAAVGWYNDYYWGQGTQVTVSS
  polyreactivity (PSR sort gate): high polyreactivity

## QVQLVESGGGLVQAGGSLRLSCAASGGIFYAYDMGWYRQAPGKERELVAAITWTGGTTYYADSVKGRFTISRDNAKNTVYLQMNSLKPEDTAVYYCAADDGTNSTARDKDDYYYWGQGTQVTVSS
  polyreactivity (PSR sort gate): low polyreactivity

## QVQLVESGGGLVQAGGSLRLSCAASGGIFYFNAMGWYRQAPWKERELVAAIDQRGDTTYYADTVKGRFTISRDNAKNTVYLQMNSLKPEDTAVYYCAAEIYFLGDDYWGQGTQFTVSS
  polyreactivity (PSR sort gate): high polyreactivity

## QVQLVESGGGLVQAGGSLRLSCAASGGIFYLNAMGWYRQAPGKERELVAAISSGVSTYYADSVKGSFTISRDNAKNTVYLKMNSLKPEDTAVYYCNADYNYPAWVGSWWDYDYWGQGTQVTVTS
  polyreactivity (PSR sort gate): low polyreactivity

## QVQLVESGGGLVQAGGSLRLSCAASGGIFYLYVMGWYRQAPGKERELVAAITSRGGRTYYADSVKGRFTISRDNAKNTVYLQMNSLKPEDTAVYYCNASQSDIFDYDYWGQGTQVTVSS
  polyreactivity (PSR sort gate): low polyreactivity

## QVQLVESGGGLVQAGGSLRLSCAASGGIFYRYAMGWYRQAPGKERELVAVISRSGSTYYADSVKGRFTISRDNAKNTVYLQMNSQKPEDTAVYYCNKYGQVPGYFSLDYWGQGTQVTVSS
  polyreactivity (PSR sort gate): high polyreactivity

## QVQLVESGGGLVQAGGSLRLSCAASGGIFYTYAMGWYRQAPGKERELVAGINWSGSSTYYADSVKGRFTISRDNAKNTVYLQMNSLKPEDTAVYYCAARSYSYSTGDYWGQGTQVTVSS
  polyreactivity (PSR sort gate): low polyreactivity

## QVQLVESGGGLVQAGGSLRLSCAASGGIFYYYAMGWYRQAPGKERQLVAGISADGGSTYYADSVKGRFTISRDNAKNTVYLQMNSLKPEDTAVYYCAADGQFDDYYSLAFDYDYWGQGTQVTVSS
  polyreactivity (PSR sort gate): high polyreactivity

## QVQLVESGGGLVQAGGSLRLSCAASGGIIDWYVKGWYRQAPGTERELVAAISYKGGSTYYADSVKGRFTISRDYAKTTGYFQMNSLKPEETAVYDCAAGVTSPYRYVWYDYWGQGTQVTVSS
  polyreactivity (PSR sort gate): low polyreactivity

## QVQLVESGGGLVQAGGSLRLSCAASGGIIGAYVMGWYIQAAGKERELVAAISSGGDTNYADTVKGRFTISRDNAKNTVYIQMNSQKPEDTAVSYCAKDPYWTELYPSGDYWGQGTQVTVSS
  polyreactivity (PSR sort gate): low polyreactivity

## QVQLVESGGGLVQAGGSLRLSCAASGGILRGYAMGWYRQAPGKERELVAAISRGGRTNYADSVKGRFTISRDNAKNTVYLQMNSLKPEDTAVYYCTALSAFQVDNYDYWGQGTQVTVSS
  polyreactivity (PSR sort gate): high polyreactivity

## QVQLVESGGGLVQAGGSLRLSCAASGGILSDYAMGWYRQAPGKERELVAAITISGGRTNYADSVKGRITISRDNAKITVYLQMNSLKPEDTAVSYCNKLPWSVRVYKPYDYWGEGTQVTVSS
  polyreactivity (PSR sort gate): low polyreactivity

## QVQLVESGGGLVQAGGSLRLSCAASGGILVGYDMGWYRQAPGKERELVAAINYSGGSTNYADSVKGRFTISRDNAKNTVYLQMNSLKTEDTALYYCAARSTARYGYWGQGTQVTVSS
  polyreactivity (PSR sort gate): low polyreactivity

## QVQLVESGGGLVQAGGSLRLSCAASGGISLRYAMGWYRQAPGKERELVAVIDFSGASTYYADSVKGRFTISRDNAKNTVYLQMNSLKPEDTAVYYCAADSHYQDDFRIQYDYWGQGTQVTVSS
  polyreactivity (PSR sort gate): low polyreactivity

## QVQLVESGGGLVQAGGSLRLSCAASGGIVRSNAMGWYRQAPGKERELVAAINRSVRTYYADSVKGRFTISRDNEKNTVYLQMNSLKPEDTAVYYCAAQQGVISRGNYWGQGTQVTVSA
  polyreactivity (PSR sort gate): low polyreactivity

## QVQLVESGGGLVQAGGSLRLSCAASGGLFSVYAMGWYRQAPGKERELVASITVSGGSTSYADSVKGRFTISRDNAKNTVYLQMYSLKPEDTAVYYCNTDFAQAHTLSWYEDMDYWGQGTQVTVSS
  polyreactivity (PSR sort gate): low polyreactivity

## QVQLVESGGGLVQAGGSLRLSCAASGGMGWYRQAPGKERELVATISSVGSTNYADSVKGRFTISRDNAKNTVYLQMNRLKPEDTAVYYCNATGVQYFLYGYWGQGTQVTVSS
  polyreactivity (PSR sort gate): low polyreactivity

## QVQLVESGGGLVQAGGSLRLSCAASGGMGWYRQAPGKERELVATISSVGSTNYADSVKGRFTISRDNAKNTVYLQMNSLKPEDTAVYYCIATGVQYFLYGYWGQGTQVTVSS
  polyreactivity (PSR sort gate): low polyreactivity

## QVQLVESGGGLVQAGGSLRLSCAASGGNFWYNTMGWYRQAPWKERELVAAISDSGGRTSYADSVKGRVTISRDNANHTVYLQMNSLKPEDTAVYYCNVDYVVSRGFIYRVDYWGQGTQVTVSS
  polyreactivity (PSR sort gate): low polyreactivity

## QVQLVESGGGLVQAGGSLRLSCAASGGSFYPYAMGWYRQAPGKERELLAAISWSGDITYYADSVKGRFTISRDNAKNTVYLLINSLKPEDTAVYYCAAGRVVDKDPSYFREGDYWGQGTQVTVSS
  polyreactivity (PSR sort gate): low polyreactivity

## QVQLVESGGGLVQAGGSLRLSCAASGGTCWWYAMGWYRQAPGKEREFVAAISQRGTSTYYADSVKGRFTISRDNAKNTVYLQMNSLKPEDTAVYYCAVRAYRWRSTLGLYYWGQGTQVTVSS
  polyreactivity (PSR sort gate): high polyreactivity

## QVQLVESGGGLVQAGGSLRLSCAASGGTFALNAMGWYRQAPGKERELVADIDGRGGSTYYADSVKGRFTISRDNAKNTVYLQMNSLKPEVTAVYYCAARAPFLSVPSELDYWGQGTQVTVSS
  polyreactivity (PSR sort gate): low polyreactivity

## QVQLVESGGGLVQAGGSLRLSCAASGGTFAQYVMGWYRQAPGKERELVAAISRTGGRTYYADSVKGRFTISRDNAKNTVYLQMNSLKPEDTAVYYCARVYTSYGTPWTNYDYWGQGTQVTVSS
  polyreactivity (PSR sort gate): high polyreactivity

## QVQLVESGGGLVQAGGSLRLSCAASGGTFARNALGWYRQAPGKERELVAAIRGGVSTNYADSVKGRFTISRDNAKNTVYLQMNSLKPEDTAVYYCNASPPTLEGYWGQGTQVTVSS
  polyreactivity (PSR sort gate): low polyreactivity

## QVQLVESGGGLVQAGGSLRLSCAASGGTFDTYDMGWYRQAPGKERELVAAIRFGDGTTYYADSVKGRFTISRDNAKNTVYLQMNSLKPEDTAVYYCNTDDPGNYWYAEYDYWGQGTQVTVSS
  polyreactivity (PSR sort gate): low polyreactivity

## QVQLVESGGGLVQAGGSLRLSCAASGGTFEFYTMGGYRQAPGKERELVAVINASGDSTYYADSVKGRFTISRDNAKNTVYLQMNSLKPEYTAVYYCAADHRGEYDYWGQGTQVNVSS
  polyreactivity (PSR sort gate): low polyreactivity

## QVQLVESGGGLVQAGGSLRLSCAASGGTFEFYTMGWYRQAPGKERELVAVINASGDSTYYADSVKGRFTISRDNAKNTVYLQMNSLKPEDTAVYYCAADHRGEYDYWGQGTQVTVSS
  polyreactivity (PSR sort gate): low polyreactivity

## QVQLVESGGGLVQAGGSLRLSCAASGGTFENYAMGWYRQPPGKERELVAAISSGGSTNYADSVKGRFTISRDNAKNTVYLQMNSLKQEDTAVYYCARYRVWGSTGHKLFHDDYWGQGTQVTVSS
  polyreactivity (PSR sort gate): low polyreactivity

## QVQLVESGGGLVQAGGSLRLSCAASGGTFFAYAMGWYRQAPGERELVAAISWSGDSTYYADSVKGRFTISRDNAKNTVYLQMNSLKPEDTAVYYCAADYGFEYYYWGQGTQVTVSS
  polyreactivity (PSR sort gate): high polyreactivity

## QVQLVESGGGLVQAGGSLRLSCAASGGTFFGYAMGWYRQAPGKERELVAAIRWSDGRTYYADSVKGRFTISRDNAKNTVYLQMNSLKPEDTAVYDCNADDARLFDYWGQGTQVTVSS
  polyreactivity (PSR sort gate): low polyreactivity
